Results reported in patent US11998620B2, “PSMA targeted compounds and uses thereof” (CASE WESTERN RESERVE UNIVERSITY, priority 2021, dated 2024).
Values belong to the molecule of their own block, whether it stands above or below them. Numbered stars: 1 amine (or outer) side, 2 acyl side, 3 side chain; on linkers, the order of the positions; unused ones are H or OH. Square brackets hold non-standard residues; d marks the D form. Peptide text beside a SMILES is read from it. * marks the point of attachment. DOTA = O=C(O)CN1CCN(CC(=O)O)CCN(CC(=O)*)CCN(CC(=O)O)CC1; γGlu = O=C(O)[CH](CCC(=O)[*:2])N[*:1]; X3 = O=C(C1CCC(CN[*:1])CC1)[*:2]; CO = O=C([*:1])[*:2]; Ahx = NCCCCCC(=O)O

Assays:
[1] = test system: PSMA-expressing cancer tissue; experiment: Standard uptake values (SUVs) by PET and blood clearance, general statements; format: in vivo; conditions: PET
Description: The term “standardized uptake value (SUV)” refers to a measure of radioactivity in a specific area of interest relative to an idealized even distribution of radioactive material throughout the body. SUV is used historically by nuclear medicine professionals to distinguish between “normal” and “abnormal” levels of uptake. Preferably, uptake is measured by positron emission tomography (PET) imaging or other imaging modalities.
The PSMA targeted compounds described herein include a PSMA ligand, e.g., PSMA-1, conjugated to a metal chelating agent or chelated metal nuclide. The PSMA targeted compounds described herein can selectively recognize PSMA-expressing tumors, cancer cells, and/or cancer neovasculature in vivo and be used to deliver at least one chelated metal nuclide, such as radionuclide, to the PSMA-expressing tumors, cancer cells, and/or cancer neovasculature to treat and/or detect the PSMA-expressing tumors, cancer cells, and/or cancer neovasculature in a subject. The PSMA ligand can target and/or increase the uptake of the metal chelating agent or chelated metal nuclide in PSMA expressing cancer cells compared to untargeted metal chelated agents or chelated metal nuclides administered to a subject and decrease non-PSMA target toxicity of the metal nuclide administered (e.g., systemically) to a subject.

[2] = target: T1, PSMA (Homo sapiens, UniProt Q04609); experiment: Competition binding assay using [3H]-ZJ24 with PC3pip cells; conditions: approximately, compared to PSMA-11, PSMA I&T and ZJ24 ligands, FIG. 3
T1 construct: expressed in transfected cells; host or cells: PC3pip cells
Description: We first conjugated a macrocyclic DOTA to our PSMA-1 ligand enabling us to label it with [^68Ga]. We then compared the macrocyclic-conjugated PSMA-1 ligand to PSMA-11 ligand, PSMA I&T ligand, and ZJ24 ligand in a competitive radio-binding assay using [^3H]-ZJ24 with PC3pip cells. FIG. 3 illustrates that the PSMA-1 ligand conjugated to DOTA, the PSMA-1 ligand has approximately 4-5 fold higher affinity for PSMA.

[3] = Stability assay: incubation in plasma or PBS, HPLC; format: in vitro ADME; conditions: 100% mouse plasma, PBS or 100% human plasma at 37° C., for 7 days
Description: (§1) PSMA-1-DOTA was incubated in 100% mouse Plasma, PBS, or 100% human plasma at 37° C. […] And stability has been monitored and confirmed for at least 7 days frozen in isotonic sterile saline.

[4] = Storage stability (lyophilized powder; frozen in saline); format: physicochemical
Description: as §1

[5] = In vivo PET imaging in healthy animals without tumor; set-up: species or system mice
Description: We compared the [^68Ga]-PSMA-11 and the [^68Ga]-PSMA-1-DOTA ligand in healthy animals without tumor. Equal doses of radioactivity were injected into the same animal (a single animal was used to limit variability). We injected the [^68Ga]-PSMA-1-DOTA first to prevent blockade of its binding by the other ligand, waited 24 hours and then injected the other radiolabeled ligand.

[6] = test system: PC3pip tumors that overexpress PSMA; experiment: In vivo PET imaging in animals harboring PC3pip tumors
Description: We also made a similar comparison using animals harboring PC3pip tumors that overexpress PSMA.

[7] = PC3pip tumor bearing animals, PET

T1 sequence (Q04609 whole entry): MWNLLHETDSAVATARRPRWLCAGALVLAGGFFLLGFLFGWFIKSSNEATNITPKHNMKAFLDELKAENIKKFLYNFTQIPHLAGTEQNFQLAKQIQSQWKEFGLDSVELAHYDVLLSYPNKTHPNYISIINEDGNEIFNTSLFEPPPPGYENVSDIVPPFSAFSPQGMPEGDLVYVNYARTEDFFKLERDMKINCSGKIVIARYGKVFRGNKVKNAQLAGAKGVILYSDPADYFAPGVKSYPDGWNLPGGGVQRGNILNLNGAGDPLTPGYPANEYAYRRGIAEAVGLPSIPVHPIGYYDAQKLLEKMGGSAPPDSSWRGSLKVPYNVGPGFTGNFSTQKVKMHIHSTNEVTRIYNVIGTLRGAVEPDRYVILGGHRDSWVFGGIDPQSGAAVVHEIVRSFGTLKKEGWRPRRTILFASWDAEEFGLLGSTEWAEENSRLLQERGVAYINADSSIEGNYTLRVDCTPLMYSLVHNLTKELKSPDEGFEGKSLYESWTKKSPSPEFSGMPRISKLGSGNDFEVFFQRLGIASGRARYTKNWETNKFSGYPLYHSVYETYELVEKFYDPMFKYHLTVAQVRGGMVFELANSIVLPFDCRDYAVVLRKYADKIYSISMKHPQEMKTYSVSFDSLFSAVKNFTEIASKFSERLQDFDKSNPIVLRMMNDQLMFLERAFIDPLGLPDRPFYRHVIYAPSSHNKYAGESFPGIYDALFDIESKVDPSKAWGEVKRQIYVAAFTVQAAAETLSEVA

Compound: NC(=O)C(CCCCNC(=O)CN1CCN(CC(=O)O)CCN(CC(=O)O)CCN(CC(=O)O)CC1)NC(=O)C(Cc1ccc(O)cc1)NC(=O)C(CCC(=O)O)NC(=O)C(CCC(=O)O)NC(=O)C(CCC(=O)O)NC(=O)CCCCCNC(=O)CCC(NC(=O)NC(CCC(=O)O)C(=O)O)C(=O)O (stereo not shown) [JB-1498] ({Glu-CO-γGlu-Ahx}-EEEYK(DOTA)-NH2; configuration not given here)
SUVs in salivary glands, lacrimal glands and non-PSMA expressing muscle tissue versus SUVs in PSMA-expressing cancer [1]: substantially lower SUVs

higher affinity for PSMA [2]: 4-5 fold
Compound: NC(=O)C(CCCCNC(=O)CN1CCN(CC(=O)O)CCN(CC(=O)O)CCN(CC(=O)O)CC1)NC(=O)C(CCC(=O)O)NC(=O)C(CCC(=O)O)NC(=O)C(CCC(=O)O)NC(=O)CCCCCNC(=O)C1CCC(CNC(=O)CCC(NC(=O)NC(CCC(=O)O)C(=O)O)C(=O)O)CC1 (stereo not shown) [PSMA-1-DOTA] ({Glu-CO-γGlu}-[X3][Ahx]EEEK(DOTA)-NH2; configuration not given here)
degradation/purity by HPLC [3]: No decline in the product
stability frozen in isotonic sterile saline ([4]; frozen): at least 7 days
stability as a lyophilized powder ([4]; long term storage): stability for long term storage
renal clearance ([5]; mouse, in vivo): faster renal clearance
renal retention of the probe ([5]; mouse, in vivo): less renal retention
SUVs in salivary glands, lacrimal glands and non-PSMA expressing muscle tissue versus SUVs in PSMA-expressing cancer [1]: substantially lower SUVs

Compound: NC(=O)[C@H](CCCCNC(=O)CN1CCN(CC(=O)O)CCN(CC(=O)O)CCN(CC(=O)O)CC1)NC(=O)[C@@H](CCC(=O)O)NC(=O)[C@@H](CCC(=O)O)NC(=O)[C@@H](CCC(=O)O)NC(=O)CCCCCNC(=O)C1CCC(CNC(=O)CC[C@H](NC(=O)N[C@@H](CCC(=O)O)C(=O)O)C(=O)O)CC1 (stereo partly shown) [[^68Ga]-PSMA-1-DOTA, metal not drawn] ({Glu-CO-γGlu}-[X3][Ahx][dE][dE][dE]K(DOTA)-NH2)
uptake in the salivary glands ([5]; mouse, in vivo): none
kidney uptake ([6]; mouse, in vivo): less kidney uptake
uptake into salivary glands ([6]; mouse, in vivo): no uptake

Compound: O=C([O-])CN(CCN(CC(=O)[O-])Cc1cc(CCC(=O)NCCCCCC(=O)NCCCC[C@H](NC(=O)N[C@@H](CCC(=O)O)C(=O)O)C(=O)O)ccc1[O-])Cc1cc(CCC(=O)O)ccc1[O-].[68Ga+3].[OH3+] [[^68Ga]-PSMA-11]
uptake in the salivary glands ([5]; healthy animals without tumor, equal doses of radioactivity, PET): significant uptake
kidney uptake [6, 7]: significant uptake
uptake in the PC3pip tumor [6, 7]: significant uptake
uptake into lacrimal glands [6, 7]: significant uptake
uptake into salivary glands [6, 7]: significant uptake
